These are literature values, as cited in paper PMC3720600.

Usually pKa stands for the pH at which an ionisable group is half protonated.

The target in the data set is Cys145 (UniProt position 145, PILIPCHRVVC).

With “O6-methylguanine-DNA methyltransferase (MGMT; O6-alkylguanine-DNA alkyltransferase, AGT) (Homo sapiens)”, the pKa is 4.8.
